Test results: EP4537907A1

Biological target: recombinant human CD248 (internally produced) (human) (UniProt Q9HCU0)
Assay: competition ELISA: non-purified Fab E. coli supernatant mixed 1:1 with biotinylated human CD248, added to immobilised human IGFBP5, Streptavidin-HRP

Chain of recombinant human CD248 (internally produced) (human) (Q9HCU0 18-687 limits assumed): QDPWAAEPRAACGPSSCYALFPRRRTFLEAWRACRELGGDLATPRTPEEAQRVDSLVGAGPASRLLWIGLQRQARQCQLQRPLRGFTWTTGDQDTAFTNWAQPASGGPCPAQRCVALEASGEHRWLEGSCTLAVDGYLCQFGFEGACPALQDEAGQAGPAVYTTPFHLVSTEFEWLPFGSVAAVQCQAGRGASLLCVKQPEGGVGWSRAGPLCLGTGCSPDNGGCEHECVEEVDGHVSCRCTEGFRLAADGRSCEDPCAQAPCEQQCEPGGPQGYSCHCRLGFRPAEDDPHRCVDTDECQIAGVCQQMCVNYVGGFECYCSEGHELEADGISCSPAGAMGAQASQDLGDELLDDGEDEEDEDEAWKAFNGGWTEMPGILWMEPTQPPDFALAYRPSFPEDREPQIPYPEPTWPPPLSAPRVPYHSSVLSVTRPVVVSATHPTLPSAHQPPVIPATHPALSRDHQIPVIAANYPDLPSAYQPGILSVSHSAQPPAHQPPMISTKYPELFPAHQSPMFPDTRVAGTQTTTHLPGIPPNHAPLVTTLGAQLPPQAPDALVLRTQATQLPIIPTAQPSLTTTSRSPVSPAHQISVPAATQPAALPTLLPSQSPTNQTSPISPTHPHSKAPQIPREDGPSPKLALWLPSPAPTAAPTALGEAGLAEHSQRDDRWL

fold inhibition of CD248-IGFBP5 binding over the negative control antibody (Palivizumab): > 10 fold
B1: YU1023-A02 Fab (Fab, V domains shown)
VH: QVQLVESGPGLVKPSQTLSLTCTVSGGSISSGGYYWSWIRQHPGKGLEWIGYIYYSGSTYYNPSLKSRVTISVDTSKNQFSLKLSSVTAADTAVYYCARVRGRSATYFDYWGQGTTVTVSS
VL: QSVLTQPPSVSGAPGQRVTISCTGSSSNIGAGYDVRWYQQLPGTAPKLLIYANNNRPSGVPDRFSGSKSGTSASLAITGLQTEDEADYYCQSYDISLSGSLFGGGTKLTVL
